Measured values from the nanobody polyreactivity screen of Harvey et al. (2022).

Assay: yeast display, Sf9 membrane polyspecificity reagent, FACS + sequencing; frameworks hold sequencing errors
Summary of the method: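 In a synthetic yeast display library (Saccharomyces cerevisiae BJ5465), nanobody expression was induced with galactose for 36–48 hours. FACS gates were set low and high (top ~1%) using anti-HA fluorescence for expression and streptavidin fluorescence for binding of the Sf9 membrane reagent. Each polyreactivity label is drawn from the gate of origin.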

| Sequence | polyreactivity (PSR sort gate) |
| --- | --- |
| QVQLVESGGGLVQAGGSLRLSCAASGSTLASYAMGWYRQAPGKERELVAVIDSGGSTYYADSVKGRFTISRDNAKNTVYLQMNSLKPEDTAVYYCAAGWEFSGVLTLFGYWGQGTQVTVSS | low polyreactivity |
| QVQLVESGGGLVQAGGSLRLSCAASGSTLASYARGWYRQAPGKERELVAAISSSGGSTYYADSVKGRFTISRDNAKNTVYLQMNSLKPEDSEVYYCAARTRTRYGIDYYWGQGTQVTVSS | high polyreactivity |
| QVQLVESGGGLVQAGGSLRLSCAASGSTLATYTMGWYRQAPGKERELVAAISFGGSTYYADSVKGRFTISRDNAKNTVYLQMNRLKPEDTAVYYCAVYGDSYWGAYYYSDGYWGQGTQVTVSS | low polyreactivity |
| QVQLVESGGGLVQAGGSLRLSCAASGSTLAVYAMGWYRQAPGKERELDAAISYSGGGTYYADSVKGRFTISRDNAKNTVYLQMNSLKPEDTAVYYCATDLYYEYYTWDYYWGQGTQVTVSS | low polyreactivity |
| QVQLVESGGGLVQAGGSLRLSCAASGSTLAVYAMLWYRQAPGKERELVAAISYSGGGTYYADSVKGRFTISRDNAKNTVYLQMNSLKPEDTAVYYCATDLYYEYFTWDYYWGQGTQVTVSS | low polyreactivity |
| QVQLVESGGGLVQAGGSLRLSCAASGSTLDFNAMGWYRQAPGKERELVAGISRDGGSTYYADSVKGRFTISRDNAKNTVYLQMNSLKPEDTAVYYCAVDFLDWYQDYYITYDYWGQGTQVTVSS | low polyreactivity |
| QVQLVESGGGLVQAGGSLRLSCAASGSTLDFNAMGWYRQAPGKERELVATITYGVGKNYADSVKGRFTISRDNAKNTVYLQMNSLKPEDTAVYYCAANNWDYARYTYWYYSFLAYDYWGQGTQVTVSS | low polyreactivity |
| QVQLVESGGGLVQAGGSLRLSCAASGSTLDIYAMGWYRQAPGKERELVAAITSGGSTNYADSVKGRFTISRDNAKNTVYLQMNSLKPEDTAVYYCNARYFRGYDYWGQGTQVTVSS | high polyreactivity |
| QVQLVESGGGLVQAGGSLRLSCAASGSTLDRNTMGWYRAAPGKESELVAAITWSGGRTYYADSVKGRFTISRDNANNSVYLQLNSLKPEDTAVYYCNKDYWKRPVDEYDYWGQGTQVTVSS | high polyreactivity |
| QVQLVESGGGLVQAGGSLRLSCAASGSTLDSNAMGWYRQAPGKERELVAGIDWSGGSTYADSVKGRFTISRDNAKNTVYLQMNSLKPEDTAVYYCAKVSRYVQPYSRFDYWGQGTQVTVSS | low polyreactivity |
| QVQLVESGGGLVQAGGSLRLSCAASGSTLDYNAMGWYRQATGKERELVAAINWSGGRTYYADSVKGRFTISRDNAKNTVYLQMNSLKPEDTAVYFCAAVDYKAKGYGYWGQGTQVTVSS | high polyreactivity |
| QVQLVESGGGLVQAGGSLRLSCAASGSTLEPNAMGWYRQAPGKERELVAAITIGGSTYYADSVKGRFTISRDNAKNTVYLQMNSLKPEDTSVYYCARRVSRYSWRNYWGQGTQVTVSS | high polyreactivity |
| QVQLVESGGGLVQAGGSLRLSCAASGSTLERYTMGWYRQAPGKERELVAAIRWSGTSTYYADSVKGRFTISRDNAKNTVYLQMKSLKPEDTAVYYCARVGFSRYYRTMYYWGQGTQVTVSS | high polyreactivity |
| QVQLVESGGGLVQAGGSLRLSCAASGSTLFIYAMGWYRQAPGKEREFVAGISYSGGSTYYADSVKGRFTISRDNAKNTVYLQMNSLKPEDTAVYYCAARTFSKPLTYRPYSGLFYYWGQGTQVTVSS | high polyreactivity |
| QVQLVESGGGLVQAGGSLRLSCAASGSTLFLYAMGWYRQAPGKERELVAAITWSGGSTYYADSVKGRFTISRDNAKKTVYLQMNSLKPEDTAVYYCAKYGRYFWNSGVDYWGQGTQVTVSS | high polyreactivity |
| QVQLVESGGGLVQAGGSLRLSCAASGSTLFSYAMGWYRQAPGKEREFVAAISRRGGSTYYEDSVKGRFTISRDYAKNTVYLQMNSLKPEETAVYYCAARDSSYNWYGYWGQGTQVTVSW | high polyreactivity |
| QVQLVESGGGLVQAGGSLRLSCAASGSTLFYNDMGWYRQAPGKEREFVAAIRSNDGSTYYADSVKGRFTISRDNAKNTVYLQMKSLKPEDTAVYYCNKDVWDGYDWPEFDYWGQGTQVTVSS | low polyreactivity |
| QVQLVESGGGLVQAGGSLRLSCAASGSTLGGSVMGWSRQAPGKERELVASITYSGGSTRYADSVKGRFTISRDNAKNTVYLQMNSLKPEDTAVYYCAAGAQRTYYTYSFRRVGYDYDYWGQGTQVTVSS | low polyreactivity |
| QVQLVESGGGLVQAGGSLRLSCAASGSTLGHNAMGWYRQAPGKERELVAAITSSGGRTYYADSVKGRFTISRDNAKNTVYLQMYSLKPEDTAVYYCAAKLHGYYDVFGQSHRTYDYWGQGTQVTVSS | high polyreactivity |
| QVQLVESGGGLVQAGGSLRLSCAASGSTLGLNAMGWYRHAPRKEREFVAAISQGGTRTYYADSVKGRLTNSRDNAKNCVYLQMNSLKPEDTAVYYCAALRHRTRAASGGDYWGQGTQVNVSS | high polyreactivity |
| QVQLVESGGGLVQAGGSLRLSCAASGSTLGPNVMGWYRQAPGKERELVAAISWRGGSTYYADSVKGRFTISRDNAKNTVYLQMNSLKPEDTAVNYGAARTTTYPYGYWGQGTQVTVSS | high polyreactivity |
| QVQLVESGGGLVQAGGSLRLSCAASGSTLGRNAMGWYRQAPGKERELVAGIDGSAGSTYYADSVKGRFTISRDNAKNSVYLQMNSLKPEDTAVYYCNADVIDLDYDYWGQGTQVTVSS | low polyreactivity |

| Sequence | polyreactivity (PSR sort gate) |
| --- | --- |
| QVQLVESGGGLVQAGGSLRLSCAASGSTLGRNVMGWYRQAPGKERELVAAISSRGSRTYYADSVKGRFTISRDNAKNTVYLQMNSLKPEDTAVYYCNRGWAHSNAKFDYWGQGTQVTVSS | high polyreactivity |
| QVQLVESGGGLVQAGGSLRLSCAASGSTLGRYTLGWYRQAPGNERELVAAIRASGTSTYYADSVKGRFTISRDNAKNTVYLQMNSLKPEDTAVYYCNALQFGTVRLDSWGQGTQVTVSS | low polyreactivity |
| QVQLVESGGGLVQAGGSLRLSCAASGSTLGSNTMGWYRQAPGKERELVATISRRGGSTYYADSVKGRFTISRDNAKNTVYLQMNSLKPEDTAVYYCAAPPVYKFTNGDYRSTFFHWGQGTQVTVSS | high polyreactivity |
| QVQLVESGGGLVQAGGSLRLSCAASGSTLGYYAMGWYRQAPGKERELVATITRSGGNTYYADSVKGRFTISRDNAKNTVYLQMNSLKPEDTAVYYCAARRLYGSQRGYWGQGTQVTVSS | high polyreactivity |
| QVQLVESGGGLVQAGGSLRLSCAASGSTLGYYDMGWYRQAPGKERELVAAITKSGGSTYYADSVKGRFTISRDNEKNNVYLQMNSLKPEDTAVYYCAAVYVSPKPGTRYYYWGQGTQVTVSS | high polyreactivity |
| QVQLVESGGGLVQAGGSLRLSCAASGSTLGYYTMGWYRQAPGKERELVAAISGSGVTTSYADSVKGRFTISRDNAKNTVYLQMNSLKPEDTAVYYCARRYRVGTTGGDYWGQGTQVTVSS | high polyreactivity |
| QVQLVESGGGLVQAGGSLRLSCAASGSTLGYYVMGWYRQAPGKERELVAAITGGGSTDYADSVKGRFTISRDNEKNTVYLQMNSLKPEDTAVYYCAAERTRTGQLFWWGPIYDYWGQGTQVTVSS | low polyreactivity |
| QVQLVESGGGLVQAGGSLRLSCAASGSTLHSYAMGWYRQAPGKERELVAAISFRGGSTYADSVKGRFTISRDNAKNTVYLQMNSLKPEDTAVYYCAAYSVYTMYWGQGTQVTVSS | low polyreactivity |
| QVQLVESGGGLVQAGGSLRLSCAASGSTLLYYAMGWYRQAPGKERELVAAISSTGSTNYADSVKGRFTISRDNAKNTVYLQMKSLKPEDTAVYYCAADYSVPTSQAYDYWGQGTQVTVSS | low polyreactivity |
| QVQLVESGGGLVQAGGSLRLSCAASGSTLNRNVMGWYRQAPGKERELVAVITYGVGSTYYADSVKGRFTISRDNAKNTVYLQMNSLKPEDTAVYYCNKDPLVFDYWGQGTQVTVSS | low polyreactivity |
| QVQLVESGGGLVQAGGSLRLSCAASGSTLNRYAMGWYRQAPGKERELVAAINGSGGSTYYADSVKGRFTISRENAKNTVYLLINSLKQEDSAVYYCAAYGYSFAYGAYGYWGQGTQVTVSS | high polyreactivity |
| QVQLVESGGGLVQAGGSLRLSCAASGSTLPANAMGWYRQAPGKERELVAAITITTDGSTYYADSVKGRFTISRDNAKNTVYLQLNSLKPEDTAVYYCAVARYRYHIRKMGYWGQGTQVTVSS | low polyreactivity |
| QVQLVESGGGLVQAGGSLRLSCAASGSTLPFNAMGCYRQAPGKERELVAAISSGSSTNYADSVKGRFTISRDNAKNTVYLKMNSLKPEDTAVYYCNARPRANQLGDYYKPGTYDYWGQGTQVTVSS | low polyreactivity |
| QVQLVESGGGLVQAGGSLRLSCAASGSTLPVYAMGWYRQAPGKERELVATITDTGITNYADSVKGRFTLSRDNAKNTVYLQMNSLKPEDTAVYYCAVDSTGVWPYQVGYAPYDYWGQGTQVTVSS | low polyreactivity |
| QVQLVESGGGLVQAGGSLRLSCAASGSTLQDNAMGWYRQAPGKDRELVAAITTGSTTYADSVKGRFTISRDNAKNTVYIQMNSLKPEDTAVYYCAADSEEYDGYTWWVFKFDYWGQGTQVTVSS | low polyreactivity |
| QVQLVESGGGLVQAGGSLRLSCAASGSTLQDNAMGWYRQAPGKERELVAAITTGSTTYADSVKGRFTISRDNAKNTVYLQMNSLKPEDTAVYYCNARVDWGWPGYEYDYWGQGTQVTVSS | low polyreactivity |
| QVQLVESGGGLVQAGGSLRLSCAASGSTLQGYAMGWYRQAPGKERELVAAISRSGGSTYYADSVKGRFTISRDNAKNTVYLQMNSLKPEDTAVYYCNRVAGGRRKGPWSYQYDYWGQGPQVTVSS | high polyreactivity |
| QVQLVESGGGLVQAGGSLRLSCAASGSTLRAYAMGWYRQAPGKERELVAGITSGGRTNYADSVKGRFTISRDNAKNTVYLQMNSLKPEDTAVYYCATDRFSHYYFLYDYWGQGTQVTVSS | low polyreactivity |
| QVQLVESGGGLVQAGGSLRLSCAASGSTLRAYAMGWYRQAPGKERELVATITRGARTNYADSVKGRFTISRDNAKNTVYLQMNSLKPEDTAVYYCAARSYGSQLSRQVYYWGQGTQVTVSS | high polyreactivity |
| QVQLVESGGGLVQAGGSLRLSCAASGSTLRFYAMGWYRPAPGKERELVAAISSSGSSTYYADSVKGRFTISRDNAKNTVYLQLNSLKPEDTAVYYCSGYGYWGQGTQVTVSS | high polyreactivity |
| QVQLVESGGGLVQAGGSLRLSCAASGSTLRFYAMGWYRQAAGKERELVADITYRGGSTYYADSVKGRFTISRDNAKNTVYLQMNSLKPEDTAVDYCAKQRSYSSKFDYWGQGSQVTVSS | high polyreactivity |
